Assay results as given in patent US9192622B2, “MicroRNA-130a,b as a tumor suppressor and sensitizing agent for chemotherapy” (University of Houston, priority 2011, dated 2015).

Experiments:
HeyA8 cells = test: Cisplatin dose-response, MTS viability with or without miR-130b; assay type: cell-based, human; conditions: 72 hours
Procedure: FIGS. 4A-4B: Impact of miR-130b on Cisplatin Dose-Response Curves. Cisplatin treated HeyA8 cells with either miR-130b or a negative control proliferation and apoptosis assays were measured 72 hours following treatment with cisplatin at the indicated concentrations. The assays were measured using MTS (FIG. 4A) and Caspase-Glo 3/7 (FIG. 4B) assays. The IC50 (concentration needed to reach 50% viability) values are shown beside the MTA graph. To assess the impact of miR-130b on cisplatin treatment, HEYA8 cells transfected with pmiR-130b, Negative control or nothing at a density of 2500 cells/well. Cells were treated with cisplatin across a range of concentrations from 0-10 μg/mL. After 72 hours, cells were assayed for growth and apoptosis activity using MTS and Caspase 3/7 assays from Promega as described before. Each sample was normalized to the parental non treated sample. Refractory disease that results from resistance to chemotherapy is a major problem for many ovarian cancer patients. The chemotherapy drug, cisplatin, works by intercalating the genomic DNA of tumor cells causing massive DNA damage that in turn causes the cells to undergo apoptosis or programmed cell […] et al. 2003). […] Seventy-two hours following cisplatin treatment, proliferation and caspase activity were measured using the same MTS and Caspase 3/7 assays used previously.

[1] = system: p63/p53/p73 network genes in HeyA8 cells; test: qPCR gene expression after p53 siRNA with and without miR-130b; assay type: cell-based, human; conditions: HeyA8, siRNA to p53, 72 hrs post-transfection
Excerpt: FIGS. 6A-6B: Impact of siRNA against p53 on miR-130b-regulated patterns of gene expression. Since many of the up regulated genes that were induced by miR-130b were also downstream transcriptional targets of p53, transient, siRNA knockdown of p53 was used with and without miR-130b present in HeyA8 (FIG. 6A) and OVCAR8 (FIG. 6B) cells and used qPCR to measure our gene set again with respect to p53. The goal was to dissect the p53-dependent and independent impacts of miR-130b in the p53-wild type HeyA8.
For gene expression analysis of target genes, 75 ng of total RNA from each sample was reverse transcribed using the qScript cDNA Super mix from Quanta Biosciences (95048). All RT-qPCR was carried out with the Veriti OneStep from Applied Biosystems. All qPCR experiments used the […] and Power SYBR Green Master Mix (Applied Biosystems). 18S was used as the endogenous control for all targets.
To determine the role of p53 in miR-130b gene regulation the HEYA and OVCAR8 cell lines were co-transfected with miR-130b and p53 siRNA (IDT_HSC.RNAI.N000546.12.2, 5′-rGrGrA rUrUrU rCrArU rCrUrC rUrUrG rUrArU rArUrGr A-3′, SEQ ID NO: 27), 5′-rUrCrA rUrCrA rUrArU rArCrA rArGrA rGrArU rGrArA rArUrC rCrUrC-3′, SEQ ID NO: 28) 72 hrs post-transfection gene expression was assayed by Q-PCR as described before.
To determine which of these gene expression changes are dependent on p53 patterns of gene expression in miR-130b over-expressing HeyA8 cells were compared in the presence of a siRNA to p53 (siP53).

N.N.[Cl][Pt][Cl] [cisplatin]
cisplatin IC50 (concentration needed to reach 50% viability) (HeyA8 cells; HeyA8 with miR-130b): ~9.9 µg/mL | cisplatin IC50 (concentration needed to reach 50% viability) (HeyA8 cells; HeyA8 with negative miRNA control (NC)): ~18.3 µg/mL

B1: siP53: siRNA to p53 (SEQ ID NO: 27 and 28) (nucleic acid)
chain 1: RGRGRARURURURCRARURCRURCRURURGRURARURARURGR
chain 2: RURCRARURCRARURARURARCRARARGRARGRARURGRARARARURCRCRURC
modifications: listed as RNA, chemistry not fully specified
MDM2 expression level [1]: down-regulated | RB1 expression level [1]: up-regulated | p21 expression level [1]: down-regulated | p53 expression level [1]: down-regulated
